Measured values as given in paper PMC10419308, “Structural Insight into the Amino Acid Environment of the Two-Domain Laccase’s Trinuclear Copper Cluster” (International Journal of Molecular Sciences, 2023).
Residue numbers refer to the chain shown, from its start. Names may count otherwise.

B1: SgfSL (Streptomyces griseoflavus Small Laccase) (Streptomyces griseoflavus; D268N/M199G/R240H) (protein)
chain: AGAAPAGGEVRRVTMYAERLAGGQMGYGLEKGKASIPGPLIELNEGDTLHVEFENTMDVPVSLHVHGLDYEISSDGTKQNKSHVEPGGTRTYTWRTHEPGRRADGTWRAGSAGYWHYHDHVVGTEHGTGGIRNGLYGPVIVRRKGDVLPDATHTIVFNDGTINNRPAHTGPNFEATVGDRVEIVMITHGEYYHTFHMHGHHWADNRTGMLTGPDDPSQVIDNKICGPANSFGFQIIAGEGVGAGAWMYHCHVQSHSDMGMVGLFLVKKPDGTIPGYDPQEHAH
notes: pET32-Xa/LIC, E. coli BL21(DE3)/Rosetta; N-terminal thioredoxin-His tail cut off with factor Xa; homotrimer; all variants tested here carry D268N (wild-type data copied from earlier work)
B2: SgfSL (Streptomyces griseoflavus Small Laccase) (Streptomyces griseoflavus; D268N/M199G) (protein)
chain: B1 chain with H201R
notes: as for B1
B3: SgfSL (Streptomyces griseoflavus Small Laccase) (Streptomyces griseoflavus; D268N/M199A) (protein)
chain: B1 chain with G160A, H201R
notes: as for B1

Key:
[1] = substrate: CCn1c(=NN=c2sc3cc(S(=O)(=O)O)ccc3n2CC)sc2cc(S(=O)(=O)O)ccc21; assay: purified protein; type: biochemical, Streptomyces griseoflavus; conditions: pH 4.0, 50 mM Britton-Robinson buffer, 30 °C, co-substrate O2, table header prints unit as MM
[2] = substrate: COc1cccc(OC)c1O; assay: purified protein; type: biochemical, Streptomyces griseoflavus; conditions: 30 °C, co-substrate O2, table header prints unit as MM
[3] = pH 8.5, 50 mM Britton-Robinson buffer
[4] = pH 7.5, 50 mM Britton-Robinson buffer
[5] = pH 7.0, 50 mM Britton-Robinson buffer

| Protein | Km [1] | kcat [1] | kcat/Km [1] | Km [2, 3] | kcat [2, 3] | kcat/Km [2, 3] | Km [2, 4] | kcat [2, 4] | kcat/Km [2, 4] | Km [2, 5] | kcat [2, 5] | kcat/Km [2, 5] |
| --- | --- | --- | --- | --- | --- | --- | --- | --- | --- | --- | --- | --- |
| B1 | 250 ± 20 µM | 38.9 ± 0.99 s⁻¹ | 156000 M⁻¹ s⁻¹ | 240 ± 30 µM | 8.19 ± 0.13 s⁻¹ | 34100 M⁻¹ s⁻¹ |  |  |  |  |  |  |
| B2 | 220 ± 30 µM | 37.7 ± 2.41 s⁻¹ | 171000 M⁻¹ s⁻¹ |  |  |  | 290 ± 20 µM | 1.88 ± 0.05 s⁻¹ | 6490 M⁻¹ s⁻¹ |  |  |  |
| B3 | 110 ± 30 µM | 21.4 ± 1.12 s⁻¹ | 195000 M⁻¹ s⁻¹ |  |  |  |  |  |  | 870 ± 100 µM | 0.8 ± 0.03 s⁻¹ | 920 M⁻¹ s⁻¹ |
